Drawing on PMC4263517, this text covers binding for 1 sequence.

In this series the target is Hfq (Pseudomonas aeruginosa (PAO1?)) (UniProt Q9HUM0). In words: EMSA. As to conditions: biotinylated UTP 1:3 to unlabeled UTP; 50 mM Tris-HCl pH 7.5, 250 mM NaCl, 250 mM KCl (Hfq annealing buffer); RNA renatured 80 C 1 min; room temperature 20 min; 7.5% TGX native gel. On the technique in general: Mobility shift assays separate free from complexed probe on a gel.
Hfq (Pseudomonas aeruginosa (PAO1?)), sequence (Q9HUM0 whole entry): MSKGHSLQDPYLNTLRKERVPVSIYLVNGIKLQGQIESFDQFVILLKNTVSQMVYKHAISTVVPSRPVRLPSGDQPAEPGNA

“AACUGGUCGCGAGAUCAGCCGGUAAGCUGAGAGACCCACGCAGUCGGACUCUUCAGAUUAUCUCCUCAUCAGGCUAAUCACGGUUUUUGACCCGGCACUUUGCCGGGUCUUUUUUUGCCUGCGAUUCGGCCGGAGACGACCGUUCAUCGGCUGGCGAUGGAAUGAAUGAGAACCGGCUUGACCUGAUAAUGAGAAUAGUUAUUAUUACACCAACUGGUCGCGAGGCCAGCAGGUAAGCUGAGAGACCAAGCAGUCGGACUCUUCAGAUUAUCUCCUCAUCAGGCUAAUCACGGUUUCGACCCGGCACUUUGCCGGGUCUUUUUUU [PrrH sRNA]” gave a binding of 11 ng/µL.
